Results taken from patent US20240199762A1 (PHILOGEN S P A, published 2024).

T1: human FAP expressed on transduced cells (SKRC52-hFAP, HT-1080-hFAP) (human, UniProt Q12884 1-760)
T1 construct: whole, on cells; Also the target in SKRC52-hFAP tumor cryosections and in tumors of tumor-bearing mice; also called cell-expressed human FAP
T1 sequence (looked up): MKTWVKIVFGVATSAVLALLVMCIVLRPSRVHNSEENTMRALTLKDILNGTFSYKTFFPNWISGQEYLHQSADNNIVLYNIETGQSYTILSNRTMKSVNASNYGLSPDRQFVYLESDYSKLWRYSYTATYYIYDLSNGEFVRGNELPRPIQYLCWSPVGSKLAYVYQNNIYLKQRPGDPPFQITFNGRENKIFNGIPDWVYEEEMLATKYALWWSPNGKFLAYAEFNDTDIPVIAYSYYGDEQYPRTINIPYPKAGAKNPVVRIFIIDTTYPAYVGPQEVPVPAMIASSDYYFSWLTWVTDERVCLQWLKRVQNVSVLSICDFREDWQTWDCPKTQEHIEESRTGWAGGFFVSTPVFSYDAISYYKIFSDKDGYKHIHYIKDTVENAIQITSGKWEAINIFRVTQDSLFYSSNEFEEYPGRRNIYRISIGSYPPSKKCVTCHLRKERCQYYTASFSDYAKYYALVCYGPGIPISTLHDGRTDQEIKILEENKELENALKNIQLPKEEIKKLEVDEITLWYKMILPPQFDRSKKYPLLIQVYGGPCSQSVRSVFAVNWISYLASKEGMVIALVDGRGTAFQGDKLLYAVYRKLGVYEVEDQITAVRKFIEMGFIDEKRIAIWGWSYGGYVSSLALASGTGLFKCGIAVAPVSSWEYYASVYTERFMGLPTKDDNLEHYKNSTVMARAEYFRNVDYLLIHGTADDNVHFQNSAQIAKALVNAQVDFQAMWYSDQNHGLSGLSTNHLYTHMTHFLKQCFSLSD

T2: canine FAP (caFAP) extracellular domain (ECD) (domestic dog (Canis familiaris))
T2 construct: also called caFAP-ECD
T2 chain: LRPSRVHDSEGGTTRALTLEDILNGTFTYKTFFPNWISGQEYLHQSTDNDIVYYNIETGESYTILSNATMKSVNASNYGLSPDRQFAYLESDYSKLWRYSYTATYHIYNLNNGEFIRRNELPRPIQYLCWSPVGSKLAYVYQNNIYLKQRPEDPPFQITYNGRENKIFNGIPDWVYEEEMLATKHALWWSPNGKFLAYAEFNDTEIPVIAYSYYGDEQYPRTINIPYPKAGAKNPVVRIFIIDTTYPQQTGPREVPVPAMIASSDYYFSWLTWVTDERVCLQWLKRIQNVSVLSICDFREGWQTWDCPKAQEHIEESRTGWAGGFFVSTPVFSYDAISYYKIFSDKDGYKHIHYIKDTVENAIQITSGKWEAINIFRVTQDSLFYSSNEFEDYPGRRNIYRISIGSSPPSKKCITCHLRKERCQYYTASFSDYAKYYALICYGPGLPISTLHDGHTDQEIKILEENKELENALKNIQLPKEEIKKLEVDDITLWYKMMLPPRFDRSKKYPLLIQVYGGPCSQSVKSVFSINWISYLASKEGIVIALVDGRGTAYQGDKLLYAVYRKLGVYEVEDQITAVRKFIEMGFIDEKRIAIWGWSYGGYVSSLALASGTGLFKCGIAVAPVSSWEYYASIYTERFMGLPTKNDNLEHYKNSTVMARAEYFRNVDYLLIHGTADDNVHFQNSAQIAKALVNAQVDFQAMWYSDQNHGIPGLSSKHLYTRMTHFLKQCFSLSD

B1: anti-FAP antibody 7NP2 in IgG1 format (antibody, V domains shown)
VH: EVQLLESGGGLVQPGGSLRLSCAASGFTFSSYAMSWVRQAPGKGLEWVSAIGSVGGPTYYADSVKGRFTISRDNSKNTLYLQMNSLRAEDTAVYYCAKRLAWFDYWGQGTLVTVSS
VL: EIVLTQSPGTLSLSPGERATLSCRASQSVSSSYLAWYQQKPGQAPRLLIYGASSRATGIPDRFSGSGSGTDFTLTISRLEPEDFAVYYCQQSGKGPLTFGQGTKVEIKR
notes: also called 7NP2 IgG1; 7NP2(IgG1)
B2: anti-hen egg lysozyme antibody KSF in IgG1 format (antibody, V domains shown)
VH: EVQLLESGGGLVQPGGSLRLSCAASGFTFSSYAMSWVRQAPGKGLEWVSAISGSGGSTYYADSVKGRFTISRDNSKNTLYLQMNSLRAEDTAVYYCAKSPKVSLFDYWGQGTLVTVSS
VL: SSELTQDPAVSVALGQTVRITCQGDSLRSYYASWYQQKPGQAPVLVIYGKNNRPSGIPDRFSGSSSGNTASLTITGAQAEDEADYYCQSSPLNRLAVVFGGGTKLTVLG
notes: Negative control; It was conjugated to FITC in the immunofluorescence and ex vivo experiments; also called KSF IgG1; KSF(IgG1)

Experiments:
[1] = target: T1, human FAP expressed on transduced cells …; assay: immunofluorescence on SKRC52-hFAP tumor cryosections, FITC conjugate at 10 ug/mL
Experimental: (§1) Immunofluorescence experiments were performed with 7NP2 and KSF (negative control), both in IgG1 format on cryosections of renal cell carcinoma SKRC52-hFAP tumor tissue slides, which were transduced to express human FAP. The 7NP2 and KSF IgG1 molecules were conjugated to FITC to allow detection. Cryostat sections (10 μm) were stained using the 7NP2 and KSF IgG1 conjugates at a final concentration of 10 μg/mL and detected with rabbit anti-FITC and goat anti-rabbit AlexaFluor488 antibody. Slides were mounted with fluorescent mounting medium and analyzed with a microscope (FIG. 5).

[2] = target: T2, canine FAP (caFAP) extracellular domain …; assay: ELISA, 120 nM caFAP-ECD coated, antibody at 5 ug/mL
Experimental: (§2) Cross-reactivity of the anti-hFAP antibodies with caFAP-ECD was tested using ELISA. 120 nM of caFAP-ECD was coated on Maxisorp plates overnight at 4° C. […] Specifically, the C5 antibody was employed in IgG2a format, while all other antibodies, including the 7NP2 antibody, were in IgG1 format. The differences between the IgG2a and IgG1 formats are not expected to affect binding to FAP. After 3 washes with PBS, binding of the antibodies to caFAP-ECD was detected using an anti-human or anti-murine antibody HRP conjugate.

[3] = target: T1, human FAP expressed on transduced cells …; assay: immunofluorescence on SKRC52-hFAP tumor cryosections, FITC conjugate
Experimental: as §1

[4] = target: T2, canine FAP (caFAP) extracellular domain …; assay: ELISA, 120 nM caFAP-ECD coated on Maxisorp plates
Experimental: as §2

Binder	binding result [1]	binding result [2]	binding result [3]	binding result [4]
B1	binds	binds	–	–
B2	–	–	no binding (tested: 10 µg/mL)	no binding (tested: 5 µg/mL)
